B1: Pbmr-wt1 (dsDNA)
DNA 1: TTTAGAAAGATTTTGCAAATCCGTTGACTCTCCCCTAGGAGGAGGTCTTACAGTATAAGGGATACACACTTG
DNA 2: CAAGTGTGTATCCCTTATACTGTAAGACCTCCTCCTAGGGGAGAGTCAACGGATTTGCAAAATCTTTCTAAA
B2: Pbmr-2 (mixed)
DNA 1: TTTAGAAAGATTTTGCAAATCCGTTGACTCTCCCCTAGGAGGAGGTCTTATAATGGGAGCTGTCACGGATGC
DNA 2: GCATCCGTGACAGCTCCCATTATAAGACCTCCTCCTAGGGGAGAGTCAACGGATTTGCAAAATCTTTCTAAA

Target: BmrR;RNAP-sigmaA holoenzyme (Bacillus subtilis;Bacillus subtilis, UniProt P39075;P20429;P37870;P37871;O35011;O31718;P06224 …, |)
Assay: EMSA; TPP 500 uM; heparin challenge; stable open complex stated in peer review file; EMSA: 10 mM HEPES pH 7.5, 100 mM KCl, 5 mM MgCl2, 3 mM DTT, 1 h room temperature, 0.75 uM RNAP, 0.5 uM DNA, 0 or 2 uM BmrR, 0 or 500 uM TPP, heparin 100 ug/ml when indicated; 5% TBE gel
Conditions: protein: recombinant;native; tags: ;; chain copies: 2;2;1;1;1;1;1

| Binder | binding result |
| --- | --- |
| B1 | binds |
| B2 | binds |

Reference: article PMC7722741, “The bacterial multidrug resistance regulator BmrR distorts promoter DNA to activate transcription”
